B1: library; numbered along this chain (parent)
chain: MAAAGGARLLRAASAVLGGPAGRWLHHAGSRAGSSGLLRNRGPGGSAEASRSLSVSARARSSSEDKITVHFINRDGETLTTKGKVGDSLLDVVVENNLDIDGFGACEGTLACSTCHLIFEDHIYEKLDAITDEENDMLDLAYGLTDRSRLGCQICLTKSMDNMTVRVPETVADARQSIDVGKTS

Variants of: B1
Test: scaled log2 fold change in cell abundance, elesclomol vs control (0 = silent mean, 1 = nonsense mean) (scaled log2 ratio); higher = higher viability under elesclomol (loss of FDX1 cuproptosis function)
Conditions: with HEK293T FDX1 KO; elesclomol 40 nM; glucose 10 mM; 11 days
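Further: variant abundance is its share of total variant reads in each endpoint sample, from next-generation sequencing of the integrated ORF PCR-amplified out of genomic DNA.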

Variant	scaled log2 fold change
MAAAGGARLLRAASAVLGGPAGRWLHHAGSRAGSSGLLRNRGPGGSAEASRSLSVSARARTSSEDKITVHFINRDGETLTTKGKVGDSLLDVVVENNLDIDGFGACEGTLACSTCHLIFEDHIYEKLDAITDEENDMLDLAYGLTDRSRLGCQICLTKSMDNMTVRVPETVADARQSIDVGKTS	0.136
MAAAGGARLLRAASAVLGGPAGRWLHHAGSRAGSSGLLRNRGPGGSAEASRSLSVSARARASSEDKITVHFINRDGETLTTKGKVGDSLLDVVVENNLDIDGFGACEGTLACSTCHLIFEDHIYEKLDAITDEENDMLDLAYGLTDRSRLGCQICLTKSMDNMTVRVPETVADARQSIDVGKTS	0.782
MAAAGGARLLRAASAVLGGPAGRWLHHAGSRAGSSGLLRNRGPGGSAEASRSLSVSARARHSSEDKITVHFINRDGETLTTKGKVGDSLLDVVVENNLDIDGFGACEGTLACSTCHLIFEDHIYEKLDAITDEENDMLDLAYGLTDRSRLGCQICLTKSMDNMTVRVPETVADARQSIDVGKTS	1.68
MAAAGGARLLRAASAVLGGPAGRWLHHAGSRAGSSGLLRNRGPGGSAEASRSLSVSARARLSSEDKITVHFINRDGETLTTKGKVGDSLLDVVVENNLDIDGFGACEGTLACSTCHLIFEDHIYEKLDAITDEENDMLDLAYGLTDRSRLGCQICLTKSMDNMTVRVPETVADARQSIDVGKTS	0.17
MAAAGGARLLRAASAVLGGPAGRWLHHAGSRAGSSGLLRNRGPGGSAEASRSLSVSARARSSSEDKITVHFINRGGETLTTKGKVGDSLLDVVVENNLDIDGFGACEGTLACSTCHLIFEDHIYEKLDAITDEENDMLDLAYGLTDRSRLGCQICLTKSMDNMTVRVPETVADARQSIDVGKTS	0.0557
MAAAGGARLLRAASAVLGGPAGRWLHHAGSRAGSSGLLRNRGPGGSAEASRSLSVSARARSSSEDKITVHFINRPGETLTTKGKVGDSLLDVVVENNLDIDGFGACEGTLACSTCHLIFEDHIYEKLDAITDEENDMLDLAYGLTDRSRLGCQICLTKSMDNMTVRVPETVADARQSIDVGKTS	-0.0681
MAAAGGARLLRAASAVLGGPAGRWLHHAGSRAGSSGLLRNRGPGGSAEASRSLSVSARARSSSEDKITVHFINRDGEFLTTKGKVGDSLLDVVVENNLDIDGFGACEGTLACSTCHLIFEDHIYEKLDAITDEENDMLDLAYGLTDRSRLGCQICLTKSMDNMTVRVPETVADARQSIDVGKTS	-0.765
MAAAGGARLLRAASAVLGGPAGRWLHHAGSRAGSSGLLRNRGPGGSAEASRSLSVSARARSSSEDKITVHFINRDGEALTTKGKVGDSLLDVVVENNLDIDGFGACEGTLACSTCHLIFEDHIYEKLDAITDEENDMLDLAYGLTDRSRLGCQICLTKSMDNMTVRVPETVADARQSIDVGKTS	-1.2
MAAAGGARLLRAASAVLGGPAGRWLHHAGSRAGSSGLLRNRGPGGSAEASRSLSVSPRARSSSEDKITVHFINRDGETLTTKGKVGDSLLDVVVENNLDIDGFGACEGTLACSTCHLIFEDHIYEKLDAITDEENDMLDLAYGLTDRSRLGCQICLTKSMDNMTVRVPETVADARQSIDVGKTS	-0.118
MAAAGGARLLRAASAVLGGPAGRWLHHAGSRAGSSGLLRNRGPGGSAEASRSLSVSARARSPSEDKITVHFINRDGETLTTKGKVGDSLLDVVVENNLDIDGFGACEGTLACSTCHLIFEDHIYEKLDAITDEENDMLDLAYGLTDRSRLGCQICLTKSMDNMTVRVPETVADARQSIDVGKTS	0.152
MAAAGGARLLRAASAVLGGPAGRWLHHAGSRAGSSGLLRNRGPGGSAEASRSLSVSARARSVSEDKITVHFINRDGETLTTKGKVGDSLLDVVVENNLDIDGFGACEGTLACSTCHLIFEDHIYEKLDAITDEENDMLDLAYGLTDRSRLGCQICLTKSMDNMTVRVPETVADARQSIDVGKTS	-0.946
MAAAGGARLLRAASAVLGGPAGRWLHHAGSRAGSSGLLRNRGPGGSAEASRSLSVSARADSSSEDKITVHFINRDGETLTTKGKVGDSLLDVVVENNLDIDGFGACEGTLACSTCHLIFEDHIYEKLDAITDEENDMLDLAYGLTDRSRLGCQICLTKSMDNMTVRVPETVADARQSIDVGKTS	0.0454
MAAAGGARLLRAASAVLGGPAGRWLHHAGSRAGSSGLLRNRGPGGSAEASRSLSVSARARSSSEDKITVHFINRDWETLTTKGKVGDSLLDVVVENNLDIDGFGACEGTLACSTCHLIFEDHIYEKLDAITDEENDMLDLAYGLTDRSRLGCQICLTKSMDNMTVRVPETVADARQSIDVGKTS	-0.575
MAAAGGARLLRAASAVLGGPAGRWLHHAGSRAGSSGLLRNRGPGGSAEASRSLSVSARARSSSEDKITVHFINRDGETLTTKGKVGDDLLDVVVENNLDIDGFGACEGTLACSTCHLIFEDHIYEKLDAITDEENDMLDLAYGLTDRSRLGCQICLTKSMDNMTVRVPETVADARQSIDVGKTS	0.11
MAAAGGARLLRAASAVLGGPAGRWLHHAGSRAGSSGLLRNRGPGGSAEASRSLSVSARARSSSEDKITVHFINRDGETLTTKGKVGDKLLDVVVENNLDIDGFGACEGTLACSTCHLIFEDHIYEKLDAITDEENDMLDLAYGLTDRSRLGCQICLTKSMDNMTVRVPETVADARQSIDVGKTS	-0.315
MAAAGGARLLRAASAVLGGPAGRWLHHAGSRAGSSGLLRNRGPGGSAEASRSLSVSARARSSSEDKITVHFINRDGETLTTKGKVGDHLLDVVVENNLDIDGFGACEGTLACSTCHLIFEDHIYEKLDAITDEENDMLDLAYGLTDRSRLGCQICLTKSMDNMTVRVPETVADARQSIDVGKTS	-0.0956

Source: the supplement of paper PMC12855868
